What was measured:
[1] = biological target: recombinant human VEGF165 (human, UniProt P15692 207-395); assay: cell-based or functional assay
[2] = biological target: recombinant human PDGF-BB (human, UniProt P01127 82-190); assay: cell-based or functional assay
[3] = biological target: T1, Human VEGF-A 111 (human, UniProt P15692-10 27-137); assay: SPR (Biacore), summary table
T1 construct: not used because the names differ; also called hVEGF111
T1 sequence (looked up): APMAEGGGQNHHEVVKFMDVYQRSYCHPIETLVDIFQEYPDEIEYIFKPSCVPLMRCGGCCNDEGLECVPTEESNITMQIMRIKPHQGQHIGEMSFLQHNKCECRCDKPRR
Method: (§1) Unreacted moieties on the biosensor surface were blocked with ethanolamine. For kinetic analysis, rate equations derived from the 1:1 Langmuir binding model were fitted simultaneously to multiple antigen injections (using global fit analysis) with the use of Scrubber 2 (BioLogic Software), Biacore Biaevaluation 4.0.1 software or Biacore T100 Evaluation software. Purified antibodies or DVD-Ig molecules were diluted in running buffer for capture across goat anti-human Fc reaction surfaces. Antibodies or DVD-Ig molecules to be captured as a ligand (1 μg/ml) were injected over reaction matrices at a flow rate of 10 μl/minute. During the assay, all measurements were referenced against the capture surface alone (i.e., with no captured antibody or DVD-Ig molecule). […] The equilibrium dissociation constant KD (M) of the reaction between antibodies and the target antigen was then calculated from the kinetic rate constants by the following formula: KD=Koff/Kₒₙ. Binding was recorded as a function of time and kinetic rate constants were calculated. In this assay, on-rates as fast as 10⁶M⁻¹s⁻¹ and off-rates as slow as 10⁻⁶ s⁻¹ could be measured.

[4] = biological target: T2, Human PDGF-BB, soluble (human, UniProt P01127 82-190); assay: SPR (Biacore), summary table
T2 construct: also called hPDGF-BB; soluble PDGF-BB
T2 sequence (P01127 82-190 limits assumed): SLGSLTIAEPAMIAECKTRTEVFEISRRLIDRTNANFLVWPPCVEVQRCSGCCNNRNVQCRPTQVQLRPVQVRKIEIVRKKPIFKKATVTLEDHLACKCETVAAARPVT
Method: as §1

[5] = biological target: T3, Human VEGF-A 165 (human, UniProt P15692 207-395); assay: SPR (Biacore), summary table
T3 construct: also called hVEGF165
Method: as §1

[6] = biological target: T4, Human VEGF-A 121 (human, UniProt P15692 207-395); assay: SPR (Biacore), summary table
T4 construct: also called hVEGF121
T4 sequence: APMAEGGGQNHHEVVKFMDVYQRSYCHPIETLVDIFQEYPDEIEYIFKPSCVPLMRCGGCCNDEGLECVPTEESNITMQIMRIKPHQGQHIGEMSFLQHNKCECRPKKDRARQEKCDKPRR
Method: as §1

[7] = biological target: T5, rat PDGF-B (PR-1645048) (rat, UniProt Q05028 74-182); assay: SPR (Biacore), DVD-Ig captured by anti-human Fc, antigen injected
T5 construct: Lot 2235300; also called rat PDGF-BB; ratPDGF-BB
T5 sequence (Q05028 74-182 limits assumed): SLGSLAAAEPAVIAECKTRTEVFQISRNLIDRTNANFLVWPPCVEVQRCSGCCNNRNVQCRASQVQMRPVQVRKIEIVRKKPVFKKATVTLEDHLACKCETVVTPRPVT
Method: as §1

Sequence of recombinant human PDGF-BB (P01127 82-190 limits assumed): as the sequence (P01127 82-190 limits assumed) above

Row | Binder | Potency IC50 (pM), Human VEGF-A, cellular assay [1] [pM] | Potency IC50 (pM), Human PDGF-BB, cellular assay [2] [pM] | Kd [3] [pM] | Kd [4] [pM] | Kd [5] [pM] | Kd [6] [pM] | Kd [7] [pM] | koff [7] [s⁻¹] | kon [7] [M⁻¹ s⁻¹]
1 | hu VEGF 9E10.1-GS-hu PDGF 33675 [hu IgG1/k] LALA H435A (PR-1610561) (bispecific antibody) heavy: EIQLVQSGSELKKPGASVKVSCKASGYTFTNYGMYWVKQAPGQGLEYMGWIDTETGRPTYADDFKGRFVFSLDTSVSTAYLQISSLKAEDTAVYFCARWSGDTTGIRGPWFAYWGQGTLVTVSSGGGGSGGGGSEVTLRESGPALVKPTQTLTLTCTFSGFSLSTYGMGVGWIRQPPGKALEWLANIWWDDDKYYNPSLKNRLTISKDTSKNQVVLTMTNMDPVDTATYYCARIESSGPKYSFDYWGQGTMVTVSSASTKGPSVFPLAPSSKSTSGGTAALGCLVKDYFPEPVTVSWNSGALTSGVHTFPAVLQSSGLYSLSSVVTVPSSSLGTQTYICNVNHKPSNTKVDKKVEPKSCDKTHTCPPCPAPEAAGGPSVFLFPPKPKDTLMISRTPEVTCVVVDVSHEDPEVKFNWYVDGVEVHNAKTKPREEQYNSTYRVVSVLTVLHQDWLNGKEYKCKVSNKALPAPIEKTISKAKGQPREPQVYTLPPSREEMTKNQVSLTCLVKGFYPSDIAVEWESNGQPENNYKTTPPVLDSDGSFFLYSKLTVDKSRWQQGNVFSCSVMHEALHNAYTQKSLSLSPGK light: DIRMTQSPSSLSASVGDRVTIECLASEDIYSDLAWYQQKPGKSPKLLIYNANGLQNGVPSRFSGSGSGTDYSLTISSLQPEDVATYFCQQYNYFPGTFGQGTKLEIKGGSGGGGSGGEIVLTQSPGTLSLSPGERATLSCRASSGSIWYSFVSWYQQKPGQAPRLLIYADDQRASGIPDRFSGSGSGTDFTLTISRLEPEDFAVYYCQSYGINIDVVFGGGTKVEIKRTVAAPSVFIFPPSDEQLKSGTASVVCLLNNFYPREAKVQWKVDNALQSGNSQESVTEQDSKDSTYSLSSTLTLSKADYEKHKVYACEVTHQGLSSPVTKSFNRGEC | 145 | 34 | – | – | – | – | – | – | –
2 | 9E10.1-GS-33675 anti-VEGF/anti-PDGF DVD-Ig molecule (PR-1610561) (bispecific antibody, human IgG1, kappa, L234A L235A, DVD-Ig: outer domain hBEW-9E10.1 (VEGF), inner domain CL-33675 (PDGF), linkers GS-H10 / GS-L10(dR); human IgG1 L234A, L235A, H435A / kappa; Lot 2213329; also called hu VEGF 9E10.1-GS-hu PDGF 33675 [hu IgG1/k]; LALA H435A) heavy: EIQLVQSGSELKKPGASVKVSCKASGYTFTNYGMYWVKQAPGQGLEYMGWIDTETGRPTYADDFKGRFVFSLDTSVSTAYLQISSLKAEDTAVYFCARWSGDTTGIRGPWFAYWGQGTLVTVSSGGGGSGGGGSEVTLRESGPALVKPTQTLTLTCTFSGFSLSTYGMGVGWIRQPPGKALEWLANIWWDDDKYYNPSLKNRLTISKDTSKNQVVLTMTNMDPVDTATYYCARIESSGPKYSFDYWGQGTMVTVSSASTKGPSVFPLAPSSKSTSGGTAALGCLVKDYFPEPVTVSWNSGALTSGVHTFPAVLQSSGLYSLSSVVTVPSSSLGTQTYICNVNHKPSNTKVDKKVEPKSCDKTHTCPPCPAPEAAGGPSVFLFPPKPKDTLMISRTPEVTCVVVDVSHEDPEVKFNWYVDGVEVHNAKTKPREEQYNSTYRVVSVLTVLHQDWLNGKEYKCKVSNKALPAPIEKTISKAKGQPREPQVYTLPPSREEMTKNQVSLTCLVKGFYPSDIAVEWESNGQPENNYKTTPPVLDSDGSFFLYSKLTVDKSRWQQGNVFSCSVMHEALHNAYTQKSLSLSPGK light: DIRMTQSPSSLSASVGDRVTIECLASEDIYSDLAWYQQKPGKSPKLLIYNANGLQNGVPSRFSGSGSGTDYSLTISSLQPEDVATYFCQQYNYFPGTFGQGTKLEIKGGSGGGGSGGEIVLTQSPGTLSLSPGERATLSCRASSGSIWYSFVSWYQQKPGQAPRLLIYADDQRASGIPDRFSGSGSGTDFTLTISRLEPEDFAVYYCQSYGINIDVVFGGGTKVEIKRTVAAPSVFIFPPSDEQLKSGTASVVCLLNNFYPREAKVQWKVDNALQSGNSQESVTEQDSKDSTYSLSSTLTLSKADYEKHKVYACEVTHQGLSSPVTKSFNRGEC | – | – | 290 | 5 | 65 | 230 | ≤ 5.2 | 5.2e-05 | ≥ 1e+07

Reference: US20170015742A1 (published 2017)
